B1: 27 (protein)
chain: STAIAQEGAAPAAILHPEKWPRPATQRLIDPAVEKRVDALLKQLSVEEKVGQVIQGDIGTITPEDLRKYPLGSILAGGNSGPNGDDRAPPKEWLDLADAFYRVSLEKRPGHTPIPVLFGIDAVHGHGNIGSATIFPHNIALGATHDPELLRRIGEVTAVEMAATGIDWTFAPALSVVRDDRWGRTYEGFSEDPEIVAAYSAYIVEGVQGKFGSKDFMAPGRIVASAKHFLADGGTDQGRDQGDARISEDELIRIHNAGYPPAIDAGVLTVMASFSSWQGIKHHGHKQLLTDVLKGQMGFNGFIVGDWNAHDQVPGCTKFNCPTSLIAGLDMYMAADSWKQLYENTLAQVKDGTIPMARLDDAVRRILRVKVLAGLFEKPAPKDRPGLPGLETLGSPEHRAVGREAVRKSLVLLKNDKGTLPLSPKARVLVAGDGADNIGKQSGGWTISWQGTGNRNDEFPGATSILGGIRDAVADAGGSVEFDVAGQYKTKPDVAIVVFGEEPYAEFQGDVETLEYQPDQKQDLALLKKLKDQGIPVVAVFLSGRPMWVNPELNASDAFVAAWLPGTEGGGVADVLFTDKAGKVQHDFAGKLSYSWPRTAAQTTVNRGDADYNPLFAYGYGLTYKDKSKVGTLPEESGVPAEARQNAGIYFRAGALRLPGRFL
B2: 31 (protein)
chain: STAIAQEGAAPAAILHPEKWPRPATQRLIDPAVEKRVDALLKQLSVEEKVGQVIQGDIGTITPEDLRKYPLGSILAGGNSGPNGDDRAPPKEWLDLADAFYRVSLEKRPGHTPIPVLFGIDAVHGHGNIGSATIFPHNIALGATHDPELLRRIGEVTAVEMAATGIDWTFAPALSVVRDDRWGRTYEGFSEDPEIVAQYSAAIVEGVQGKFGSKDFMAPGRIVASAKHFLADGGTDQGRDQGDARISEDELIRIHNAGYPPAIDAGVLTVMASFSSWQGIKHHGHKQLLTDVLKGQMGFNGFIVGDWNAHDQVPGCTKFNCPTSLIAGLDMYMAADSWKQLYENTLAQVKDGTIPMARLDDAVRRILRVKVLAGLFEKPAPKDRPGLPGLETLGSPEHRAVGREAVRKSLVLLKNDKGTLPLSPKARVLVAGDGADNIGKQSGGWTISWQGTGNRNDEFPGATSILGGIRDAVADAGGSVEFDVAGQYKTKPDVAIVVFGEEPYAEFQGDVETLEYQPDQKQDLALLKKLKDQGIPVVAVFLSGRPMWVNPELNASDAFVAAWLPGTEGGGVADVLFTDKAGKVQHDFAGKLSYSWPRTAAQTTVNRGDADYNPLFAYGYGLTYKDKSKVGTLPEESGVPAEARQNAGIYFRAGALRLPGRFL
B3: 30 (protein)
chain: STAIAQEGAAPAAILHPEKWPRPATQRLIDPAVEKRVDALLKQLSVEEKVGQVIQGDIGTITPEDLRKYPLGSILAGGNSGPNGDDRAPPKEWLDLADAFYRVSLEKRPGHTPIPVLFGIDAVHGHGNIGSATIFPHNIALGATHDPELLRRIGDVTAVEMAATGIDWTFAPALSVVRDDRWGRTYEGFSEDPEIVAAYSAAIVEGVQGKFGSKDFMAPGRIVASAKHFLADGGTDQGRDQGDARISEDELIRIHNAGYPPAIDAGVLTVMASFSSWQGIKHHGHKQLLTDVLKGQMGFNGFIVGDWNAHDQVPGCTKFNCPTSLIAGLDMYMAADSWKQLYENTLAQVKDGTIPMARLDDAVRRILRVKVLAGLFEKPAPKDRPGLPGLETLGSPEHRAVGREAVRKSLVLLKNDKGTLPLSPKARVLVAGDGADNIGKQSGGWTISWQGTGNRNDEFPGATSILGGIRDAVADAGGSVEFDVAGQYKTKPDVAIVVFGEEPYAEFQGDVETLEYQPDQKQDLALLKKLKDQGIPVVAVFLSGRPMWVNPELNASDAFVAAWLPGTEGGGVADVLFTDKAGKVQHDFAGKLSYSWPRTAAQTTVNRGDADYNPLFAYGYGLTYKDKSKVGTLPEESGVPAEARQNAGIYFRAGALRLPGRFL
B4: 28 (protein)
chain: STAIAQEGAAPAAILHPEKWPRPATQRLIDPAVEKRVDALLKQLSVEEKVGQVIQGDIGTITPEDLRKYPLGSILAGGNSGPNGDDRAPPKEWLDLADAFYRVSLEKRPGHTPIPVLFGIDAVHGHGNIGSATIFPHNIALGATHDPELLRRIGEVTAVEMAATGIDWTFAPALSVVRDDRWGRTYEGFSEDPEIVAAYSAAIVEGVQGKWGSKDFMAPGRIVASAKHFLADGGTDQGRDQGDARISEDELIRIHNAGYPPAIDAGVLTVMASFSSWQGIKHHGHKQLLTDVLKGQMGFNGFIVGDWNAHDQVPGCTKFNCPTSLIAGLDMYMAADSWKQLYENTLAQVKDGTIPMARLDDAVRRILRVKVLAGLFEKPAPKDRPGLPGLETLGSPEHRAVGREAVRKSLVLLKNDKGTLPLSPKARVLVAGDGADNIGKQSGGWTISWQGTGNRNDEFPGATSILGGIRDAVADAGGSVEFDVAGQYKTKPDVAIVVFGEEPYAEFQGDVETLEYQPDQKQDLALLKKLKDQGIPVVAVFLSGRPMWVNPELNASDAFVAAWLPGTEGGGVADVLFTDKAGKVQHDFAGKLSYSWPRTAAQTTVNRGDADYNPLFAYGYGLTYKDKSKVGTLPEESGVPAEARQNAGIYFRAGALRLPGRFL
B5: 29 (protein)
chain: STAIAQEGAAPAAILHPEKWPRPATQRLIDPAVEKRVDALLKQLSVEEKVGQVIQGDIGTITPEDLRKYPLGSILAGGNSGPNGDDRAPPKEWLDLADAFYRVSLEKRPGHTPIPVLFGIDAVHGHGNIGSATIFPHNIALGATHDPELLRRIGEVTAVEMAATGIDWTFAPALSVVRDDRWGRTYEGFSEDPEIVAAYSPAIVEGVQGKFGSKDFMAPGRIVASAKHFLADGGTDQGRDQGDARISEDELIRIHNAGYPPAIDAGVLTVMASFSSWQGIKHHGHKQLLTDVLKGQMGFNGFIVGDWNAHDQVPGCTKFNCPTSLIAGLDMYMAADSWKQLYENTLAQVKDGTIPMARLDDAVRRILRVKVLAGLFEKPAPKDRPGLPGLETLGSPEHRAVGREAVRKSLVLLKNDKGTLPLSPKARVLVAGDGADNIGKQSGGWTISWQGTGNRNDEFPGATSILGGIRDAVADAGGSVEFDVAGQYKTKPDVAIVVFGEEPYAEFQGDVETLEYQPDQKQDLALLKKLKDQGIPVVAVFLSGRPMWVNPELNASDAFVAAWLPGTEGGGVADVLFTDKAGKVQHDFAGKLSYSWPRTAAQTTVNRGDADYNPLFAYGYGLTYKDKSKVGTLPEESGVPAEARQNAGIYFRAGALRLPGRFL
B6: 32 (protein)
chain: STAIAQEGAAPAAILHPEKWPRPATQRLIDPAVEKRVDALLKQLSVEEKVGQVIQGDIGTITPEDLRKYPLGSILAGGNSGPNGDDRAPPKEWLDLADAFYRVSLEKRPGHTPIPVLFGIDAVHGHGNIGSATIFPHNIALGATHDPELLRRIGEVTAVEMAATGIDWTFAPALSVVRDDRWGRTYEGFSEDPEIVAAYSAAIVEGVQGKFGSKDFMAPGRGVASAKHFLADGGTDQGRDQGDARISEDELIRIHNAGYPPAIDAGVLTVMASFSSWQGIKHHGHKQLLTDVLKGQMGFNGFIVGDWNAHDQVPGCTKFNCPTSLIAGLDMYMAADSWKQLYENTLAQVKDGTIPMARLDDAVRRILRVKVLAGLFEKPAPKDRPGLPGLETLGSPEHRAVGREAVRKSLVLLKNDKGTLPLSPKARVLVAGDGADNIGKQSGGWTISWQGTGNRNDEFPGATSILGGIRDAVADAGGSVEFDVAGQYKTKPDVAIVVFGEEPYAEFQGDVETLEYQPDQKQDLALLKKLKDQGIPVVAVFLSGRPMWVNPELNASDAFVAAWLPGTEGGGVADVLFTDKAGKVQHDFAGKLSYSWPRTAAQTTVNRGDADYNPLFAYGYGLTYKDKSKVGTLPEESGVPAEARQNAGIYFRAGALRLPGRFL

The data set in a line: High throughput cellobiose assay: fold improvement in cellobiase activity of CelA variants over a control enzyme (Tables 2A-2D, 3, 5, 6, 7). Type of data set: biochemical. As to conditions: 3.3 g/l cellobiose, 50° C. and pH 6.5; compared to native CelA (SEQ ID NO: 4). The method, then:
β-glucosidase activity was also determined using a cellobiose assay, which used cellobiose as substrate. In a total volume of 100 μL, 25 μL clear media supernatant containing CelA enzyme was added to 10 g/L cellobiose (Fluka Cat. No. 22150, Sigma-Aldrich, Inc., St. Louis, Mo.) in 100 mM sodium phosphate buffer (pH 6-7) or sodium acetate buffer (pH 5-5.5). The reaction was incubated at 45-70° C. for an appropriate time (25 minutes to overnight depending on the enzyme concentration) while shaking. Glucose production was determined using an enzymatic glucose assay (K-GLUC, Megazyme, Ireland). 10 μl of each reaction was added to 190 μl GOPOD reagent (supplied as part of the K-GLUC assay kit). The reaction was incubated at 45° C. for 20 minutes and the absorbance of the solution was measured at 510 nm. The GOPOD reagent contains 50 mM Potassium phosphate buffer pH7.4, 0.011M p-hydroxybenzoic acid, 0.008% w/v sodium azide, glucose oxidase (>12,000 U/L), peroxidase (>650 U/L) and 80 mg/L 4-aminoantipyrine. The glucose oxidase enzyme in the reagent reacts with any glucose present in the sample and produces hydrogen peroxide which then reacts with the 4-aminoantipyrine to produce a quinoneimine dye in quantities proportionate with the amount of glucose present and can be measured spectrophotometrically at 510 nm. Detectable β-glucosidase activity was observed under high throughput screening conditions (i.e., pH 7, 50° C.).
Plasmid libraries containing variant CelA genes were transformed into B. megaterium and plated on Luria-Bertani (LB) agar plates containing 3 μg/mL tetracycline with a DM3 regeneration media overlay (400 mM sodium succinate dibasic, pH 7.3, 0.5% casamino acids, 0.5% yeast extract, 0.4% K2HPO4, 0.2% KH2PO4, 20 mM MgCl2, 0.5% glucose and 0.2% BSA). After incubation for at least 18 hours at 30° C., colonies were picked using a Q-bot® robotic colony picker (Genetix USA, Inc., Beaverton, Oreg.) into shallow, 96-well well microtiter plates containing 180 μL, LB and 10 μg/mL tetracycline. Cells were grown overnight at 37° C. with shaking at 200 rpm and 85% humidity. 10 μL of this culture was then transferred into 96-well microtiter plates (deep well) containing 390 μL A5-glucose-xylose medium and 10 μg/mL tetracycline as described in example 2. The plates were then incubated at 37° C. with shaking at 250 rpm and 85% humidity overnight (˜18-24 hours). The deep plates were centrifuged at 4000 rpm for 15 minutes and the clear media supernatant containing the secreted CelA enzyme was used for the high throughput pNPG or cellobiose assay of Example 5.
The CelA libraries were screened in high throughput using the cellobiose assay of Example 5 (Substrate: cellobiose; pH: 5-7; temperature: 45-72° C.; time: 2-24 hrs) for the identification of improved variants.
In shallow, 96-well microtiter plates 25 μL of media supernatant was added to 75 μL of […] cellobiose in 150 mM sodium acetate buffer pH 5-5.5 or 150 mM sodium phosphate buffer pH6-7. After sealing with aluminum/polypropylene laminate heat seal tape (Velocity 11 (Menlo Park, Calif.), Cat#06643-001), the plates were shaken at 45-65° C. for up to 24 hrs. The plates were centrifuged for 5 minutes at 4000 rpm. In shallow well clear microtiter plates, 10 μL of the reaction mixture was added to 190 μL of GOPOD reagent (as in example 5B) per well. The solutions were incubated at 45° C. for 1 hour and absorbance was measured at 510 nm for the identification of active CelA variants.
Improved CelA variants were identified from the high throughput screening of various CelA variant libraries as described in Example 7, using the cellobiose assay of Example 5 using 3.3 g/l cellobiose at temperatures from 50°-55° C. at a pH in the range of 5.3-6.5. Tables 2A, 2B, 2C, and 2D and Table 3 depict the improvement in activities of CelA variants encompassed by the invention. The assay conditions are indicated in each table. […]
For B1, the “Fold improvement over wildtype CelA” value is “+ (+ = 1.1 to 2.0 fold improvement over native CelA (SEQ ID NO: 4))”.
With B2, the “Fold improvement over wildtype CelA” value was “+ (+ = 1.1 to 2.0 fold improvement over native CelA (SEQ ID NO: 4))”.
In the case of B3, the “Fold improvement over wildtype CelA” value is recorded as “+ (+ = 1.1 to 2.0 fold improvement over native CelA (SEQ ID NO: 4))”.
Take B4: the “Fold improvement over wildtype CelA” value was “++ (++ = 2.1 to 2.6 fold improvement over native CelA (SEQ ID NO: 4))”.
In the case of B5, the “Fold improvement over wildtype CelA” value is recorded as “++ (++ = 2.1 to 2.6 fold improvement over native CelA (SEQ ID NO: 4))”.
In the case of B6, the “Fold improvement over wildtype CelA” value is “+ (+ = 1.1 to 2.0 fold improvement over native CelA (SEQ ID NO: 4))”.

For the origin of these results see patent publication US8357523B2, “Beta-glucosidase variant enzymes and related polynucleotides” (Codexis, Inc., priority 2009, dated 2013).
